The record followed here is US20160297884A1 (Pfizer, published 2016).

In test [1] the target is T1, Human BCMA (human, UniProt Q02223 1-54, limits assumed).
T1 construct: Soluble analyte in SPR; construct not described; also called huBCMA; B-cell maturation antigen
T1 sequence (looked up): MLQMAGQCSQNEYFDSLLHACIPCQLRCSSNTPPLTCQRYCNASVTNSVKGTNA
The test is described as follows: SPR, IgG immobilised, 37 C. The gist of the method:
(§1)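 Kinetic titration: huBCMA/cyBCMA 0.08–50 nM (5-fold steps), 2 min association per step, 2 h dissociation after top dose; HBS-T+ + 1 mg/mL BSA, 25 or 37° C; double-referenced, fit 1:1 Langmuir with mass transport.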
For orientation: Surface plasmon resonance follows binding to a sensor surface in real time, without labels.

For test [2], the target named is T2, cynomolgus monkey BCMA (cynomolgus monkey, UniProt A0A2K5UD97 1-53).
T2 construct: Soluble analyte in SPR; construct not described; also called cyBCMA; Cyno BCMA
T2 sequence (A0A2K5UD97 entry or part of it): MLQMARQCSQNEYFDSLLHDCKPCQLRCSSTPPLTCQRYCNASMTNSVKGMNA
The test is described as follows: SPR, IgG immobilised, 37 C. In a few lines: as §1

The target in test [3] is T3, Cynomolgus monkey BCMA (cynomolgus monkey).
T3 construct: Soluble analyte in SPR; also called cyBCMA; Cyno BCMA
Description: SPR, IgG immobilised, cyno BCMA analyte. The gist of the method:
as §1

In test [4] the target is T4, Human BCMA (human, UniProt Q02223 1-54, limits assumed).
T4 construct: also called huBCMA; B-cell maturation antigen
T4 sequence (looked up): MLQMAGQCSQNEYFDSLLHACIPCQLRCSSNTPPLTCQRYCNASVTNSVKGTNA
Description: SPR, IgG immobilised, human BCMA analyte. The gist of the method:
as §1

B1: L3.PY/H2.DY (antibody, V domains shown)
VH: EVQLLESGGGLVQPGGSLRLSCAASGFTFGSYAMTWVRQAPGKGLEWVSAIDYSGGNTFYADSVKGRFTISRDNSKNTLYLQMNSLRAEDTAVYYCARVSPIASGMDYWGQGTLVTVSS
VL: EIVLTQSPGTLSLSPGERATLSCRASQSVSSSYLAWYQQKPGQAPRLLIYGASSRATGIPDRFSGSGSGTDFTLTISRLEPEDFAVYYCQHYPYPPSFTFGQGTKVEIK
notes: IgG
On to B1, for which, in test [1], binding was put at a Kd of 0.53 nM, the “T ½” value worked out at 8.37 min, the koff came out at 0.00138 s⁻¹ and the kon came out at 2.6e+06 M⁻¹ s⁻¹. For the same molecule, in test [2], the equilibrium dissociation constant (Kd) is 2.76 nM, the “T ½” value came to 1.87 min, the off-rate (koff) worked out at 0.00618 s⁻¹ and the on-rate constant (kon) was 2.24e+06 M⁻¹ s⁻¹.

B2: L3.PY/H2.LT (antibody, V domains shown)
VH: EVQLLESGGGLVQPGGSLRLSCAASGFTFGSYAMTWVRQAPGKGLEWVSAISLTGGNTFYADSVKGRFTISRDNSKNTLYLQMNSLRAEDTAVYYCARVSPIASGMDYWGQGTLVTVSS
VL: EIVLTQSPGTLSLSPGERATLSCRASQSVSSSYLAWYQQKPGQAPRLLIYGASSRATGIPDRFSGSGSGTDFTLTISRLEPEDFAVYYCQHYPYPPSFTFGQGTKVEIK
notes: IgG
Regarding B2, in test [1], binding was put at a Kd of 0.54 nM, the “T ½” value was determined as 8.95 min, the dissociation rate constant (koff) stood at 0.00129 s⁻¹ and the association rate constant (kon) stood at 2.4e+06 M⁻¹ s⁻¹. Further, in test [2], the affinity, expressed as Kd, was 3.63 nM; the “T ½” value stood at 1.53 min; the koff came out at 0.00757 s⁻¹; the kon turned out to be 2.09e+06 M⁻¹ s⁻¹.

B3: L3.PY/H2.HA (antibody, V domains shown)
VH: EVQLLESGGGLVQPGGSLRLSCAASGFTFGSYAMTWVRQAPGKGLEWVSAISHAGGNTFYADSVKGRFTISRDNSKNTLYLQMNSLRAEDTAVYYCARVSPIASGMDYWGQGTLVTVSS
VL: EIVLTQSPGTLSLSPGERATLSCRASQSVSSSYLAWYQQKPGQAPRLLIYGASSRATGIPDRFSGSGSGTDFTLTISRLEPEDFAVYYCQHYPYPPSFTFGQGTKVEIK
notes: IgG
On to B3, for which, in test [1], the Kd was determined as 0.6 nM, the “T ½” value stood at 7.89 min, the koff came out at 0.00147 s⁻¹ and the association rate constant (kon) is 2.43e+06 M⁻¹ s⁻¹. Also, in test [2], binding was put at a Kd of 3.79 nM, the “T ½” value worked out at 1.53 min, the koff turned out to be 0.00755 s⁻¹ and the kon was determined as 1.99e+06 M⁻¹ s⁻¹.

B4: L3.PY/H3.AE (antibody, V domains shown)
VH: EVQLLESGGGLVQPGGSLRLSCAASGFTFGSYAMTWVRQAPGKGLEWVSAISGSGGNTFYADSVKGRFTISRDNSKNTLYLQMNSLRAEDTAVYYCARVSPIAAEMDYWGQGTLVTVSS
VL: EIVLTQSPGTLSLSPGERATLSCRASQSVSSSYLAWYQQKPGQAPRLLIYGASSRATGIPDRFSGSGSGTDFTLTISRLEPEDFAVYYCQHYPYPPSFTFGQGTKVEIK
notes: IgG
For B4, in test [1], the Kd amounted to 0.42 nM, the “T ½” value worked out at 8.32 min, the koff is 0.00139 s⁻¹ and the on-rate constant (kon) was found to be 3.29e+06 M⁻¹ s⁻¹. In test [2], binding was characterised by a dissociation constant (Kd) of 1.79 nM, the “T ½” value came to 2.29 min, the koff was found to be 0.00504 s⁻¹ and the association rate constant (kon) turned out to be 2.82e+06 M⁻¹ s⁻¹.

B5: L3.PY/H2.QR (antibody, V domains shown)
VH: EVQLLESGGGLVQPGGSLRLSCAASGFTFGSYAMTWVRQAPGKGLEWVSAISGSGGNTFYADQRKGRFTISRDNSKNTLYLQMNSLRAEDTAVYYCARVSPIASGMDYWGQGTLVTVSS
VL: EIVLTQSPGTLSLSPGERATLSCRASQSVSSSYLAWYQQKPGQAPRLLIYGASSRATGIPDRFSGSGSGTDFTLTISRLEPEDFAVYYCQHYPYPPSFTFGQGTKVEIK
notes: IgG
B5: in test [1], binding was put at a Kd of 0.46 nM, the “T ½” value was 9.75 min, the dissociation rate constant (koff) was 0.00119 s⁻¹ and the kon was determined as 2.56e+06 M⁻¹ s⁻¹. Besides, in test [2], binding was characterised by a dissociation constant (Kd) of 3.02 nM, the “T ½” value came to 1.76 min, the koff stood at 0.00658 s⁻¹ and the on-rate constant (kon) came to 2.18e+06 M⁻¹ s⁻¹.

B6: L3.PY/H2.YQ (antibody, V domains shown)
VH: EVQLLESGGGLVQPGGSLRLSCAASGFTFGSYAMTWVRQAPGKGLEWVSAISYQGGNTFYADSVKGRFTISRDNSKNTLYLQMNSLRAEDTAVYYCARVSPIASGMDYWGQGTLVTVSS
VL: EIVLTQSPGTLSLSPGERATLSCRASQSVSSSYLAWYQQKPGQAPRLLIYGASSRATGIPDRFSGSGSGTDFTLTISRLEPEDFAVYYCQHYPYPPSFTFGQGTKVEIK
notes: IgG
Take B6: in test [1], the dissociation constant Kd was determined as 0.6 nM, the “T ½” value was determined as 7.41 min, the off-rate (koff) was found to be 0.00156 s⁻¹ and the association rate constant (kon) was 2.58e+06 M⁻¹ s⁻¹. Besides, in test [2], binding was characterised by a dissociation constant (Kd) of 2.53 nM, the “T ½” value was determined as 1.86 min, the koff was determined as 0.00621 s⁻¹ and the kon came out at 2.46e+06 M⁻¹ s⁻¹.

B7: L3.PY/H2.QL (antibody, V domains shown)
VH: EVQLLESGGGLVQPGGSLRLSCAASGFTFGSYAMTWVRQAPGKGLEWVSAISGSGGNTFYADQLKGRFTISRDNSKNTLYLQMNSLRAEDTAVYYCARVSPIASGMDYWGQGTLVTVSS
VL: EIVLTQSPGTLSLSPGERATLSCRASQSVSSSYLAWYQQKPGQAPRLLIYGASSRATGIPDRFSGSGSGTDFTLTISRLEPEDFAVYYCQHYPYPPSFTFGQGTKVEIK
notes: IgG
For B7, in test [1], the equilibrium dissociation constant (Kd) stood at 0.82 nM, the “T ½” value came out at 5.31 min, the off-rate constant (koff) amounted to 0.00218 s⁻¹ and the on-rate (kon) turned out to be 2.64e+06 M⁻¹ s⁻¹. In addition, in test [2], the Kd amounted to 6.16 nM, the “T ½” value is 0.91 min, the dissociation rate constant (koff) came out at 0.0126 s⁻¹ and the kon was 2.05e+06 M⁻¹ s⁻¹.

B8: COMBO_Rd4_6nM_C25 (antibody, V domains shown)
VH: EVQLLESGGGLVQPGGSLRLSCAASGFTFSSYPMSWVRQAPGKGLEWVSAIGGSGGSTYYADSVKGRFTISRDNSKNTLYLQMNSLRAEDTAVYYCARYWPMDPWGQGTLVTVSS
VL: EIVLTQSPGTLSLSPGERATLSCRASQSVSSPYLAWYQQKPGQAPRLLMYDASIRATGIPDRFSGSGSGTDFTLTISRLEPEDFAVYYCQQYQSWPLTFGQGTKVEIK
notes: IgG
B8: in test [3], binding was put at a Kd of 0.079 nM, the dissociation rate constant (koff) came to 0.000226 s⁻¹ and the association rate constant (kon) is 2.85e+06 M⁻¹ s⁻¹. In test [4], the dissociation constant (Kd) came to 0.014 nM, the koff turned out to be 0.000113 s⁻¹ and the kon is 7.98e+06 M⁻¹ s⁻¹.

B9: A02_Rd4_0.6nM_C18 (antibody, V domains shown)
VH: EVQLLESGGGLVQPGGSLRLSCAASGFTFSSYAMNWVRQAPGKGLEWVSAVLDSGGSTYYADSVKGRFTISRDNSKNTLYLQMNSLRAEDTAVYYCARYWPMSLWGQGTLVTVSS
VL: EIVLTQSPGTLSLSPGERATLSCRASQSVSELYLAWYQQKPGQAPRLLMYDASIRATGIPDRFSGSGSGTDFTLTISRLEPEDFAVYYCQQYFGWPLTFGQGTKVEIK
notes: IgG
Regarding B9, in test [3], the affinity, expressed as Kd, was 0.197 nM; the off-rate (koff) came out at 0.000639 s⁻¹; the on-rate constant (kon) stood at 3.24e+06 M⁻¹ s⁻¹. Besides, in test [4], the Kd was 0.048 nM, the off-rate (koff) stood at 0.000229 s⁻¹ and the kon amounted to 4.73e+06 M⁻¹ s⁻¹.

B10: COMBO_Rd4_6nM_C12 (antibody, V domains shown)
VH: EVQLLESGGGLVQPGGSLRLSCAASGFTFSSYPMSWVRQAPGKGLEWVSAALGSGGSTYYADSVKGRFTISRDNSKNTLYLQMNSLRAEDTAVYYCARYWPMDSWGQGTLVTVS
VL: EIVLTQSPGTLSLSPGERATLSCRASQSVSASYLAWYQQKPGQAPRLLMYDASIRATGIPDRFSGSGSGTDFTLTISRLEPEDFAVYYCQQYMSWPLTFGQGTKVEIK
notes: IgG
On to B10, for which, in test [3], the Kd stood at 0.148 nM, the koff was 0.000486 s⁻¹ and the kon amounted to 3.29e+06 M⁻¹ s⁻¹. In test [4], this molecule displayed a Kd of 0.02 nM, a koff of 0.00027 s⁻¹ and an on-rate (kon) of 1.38e+07 M⁻¹ s⁻¹.

B11: COMBO_Rd4_0.6nM_C22 (antibody, V domains shown)
VH: EVQLLESGGGLVQPGGSLRLSCAASGFTFSSYAMNWVRQAPGKGLEWVSAISDSGGSRWYADSVKGRFTISRDNSKNTLYLQMNSLRAEDTAVYYCTRYWPMDIWGQGTLVTVSS
VL: EIVLTQSPGTLSLSPGERATLSCRASVRVSSTYLAWYQQKPGQAPRLLMYDASIRATGIPDRFSGSGSGTDFTLTISRLEPEDFAVYYCQQYMKWPLTFGQGTKVEIK
notes: IgG; also called COM22
In test [3], B11 gave a Kd of 0.05 nM, a koff of 6.66e-05 s⁻¹ and a kon of 1.34e+06 M⁻¹ s⁻¹. Besides, in test [4], the dissociation constant Kd came out at 0.036 nM, the koff was determined as 7.15e-05 s⁻¹ and the association rate constant (kon) is 1.97e+06 M⁻¹ s⁻¹.

B12: P5C1_VHVL (antibody, V domains shown)
VH: EVQLLESGGGLVQPGGSLRLSCAASGFTFSSYPMSWVRQAPGKGLEWVSAIGGSGGSTYYADSVKGRFTISRDNSKNTLYLQMNSLRAEDTAVYYCARYWPMDSWGQGTLVTVSS
VL: EIVLTQSPGTLSLSPGERATLSCRASQSVSSTYLAWYQQKPGQAPRLLIYDASSRAPGIPDRFSGSGSGTDFTLTISRLEPEDFAVYYCQQYSTSPLTFGQGTKVEIK
notes: IgG; also called PC1
In test [3], B12 registered a Kd of 15.2 nM, an off-rate constant (koff) of 0.0538 s⁻¹ and an on-rate (kon) of 3.53e+06 M⁻¹ s⁻¹. Also, in test [4], binding was put at a Kd of 5.99 nM, the off-rate (koff) was 0.0692 s⁻¹ and the on-rate (kon) came to 1.16e+07 M⁻¹ s⁻¹.

B13: P5A2_VHVL (antibody, V domains shown)
VH: EVQLLESGGGLVQPGGSLRLSCAASGFTFSSYAMNWVRQAPGKGLEWVSAISDSGGSTYYADSVKGRFTISRDNSKNTLYLQMNSLRAEDTAVYYCARYWPMDIWGQGTLVTVSS
VL: EIVLTQSPGTLSLSPGERATLSCRASQSVSSSYLAWYQQKPGQAPRLLMYDASIRATGIPDRFSGSGSGTDFTLTISRLEPEDFAVYYCQQYGSWPLTFGQGTKVEIK
notes: IgG
Take B13: in test [3], the Kd is 10.2 nM, the koff was determined as 0.0164 s⁻¹ and the kon amounted to 1.61e+06 M⁻¹ s⁻¹. In test [4], this molecule returned a Kd of 5.57 nM, a dissociation rate constant (koff) of 0.0387 s⁻¹ and a kon of 6.96e+06 M⁻¹ s⁻¹.

As a reminder, the Kd is the constant that tells how readily two partners part at equilibrium. By koff is commonly meant the first-order rate constant of dissociation. One may read the kon as the rate constant with which the complex forms.
